Measured values from PMC4929722.

Experiments:
[1] = target: BTas-Y (bovine foamy virus transactivator Tas of clone pBS-BFV-Y, D108) (bovine foamy virus (BFV3026)); experiment: cross-linking; lysates of transfected HEK293T cells (20 mM Tris-Cl pH 7.5, 150 mM EDTA, 0.5 mM Na3VO4, 1 % NP-40) mixed with 0.01 % glutaraldehyde in 20 mM triethanolamine pH 8.2, 10 mM NaCl, 30 min at room temperature; 12 % SDS-PAGE and immunoblot with anti-BTas
[2] = target: BTas-B (bovine foamy virus transactivator Tas of clone pBS-BFV-B, N108) (bovine foamy virus (BFV3026)); experiment: as above

Substance | stoichiometry N [1] | stoichiometry N [2]
BTas-Y (bovine foamy virus transactivator Tas of clone pBS-BFV-Y, D108) (natural protein) | 2 | 
BTas-B (bovine foamy virus transactivator Tas of clone pBS-BFV-B, N108) (natural protein) |  | 2
